T1: Z-L-tyrosine-L-lysine-L-arginine-p-nitroanilide
T1 chain: YKR

B1: ss-Kex1-C600 (soluble secreted Kex1 endoprotease of Kluyveromyces lactis truncated at amino acid 600) (protein)
chain: LPIGDSSMEQIQNARILFNISDPLFDQQWHLINPNYPGNDVNVTGLWKENITGYGVVAALVDDGLDYENEDLKDNFCVEGSWDFNDNNPLPKPRLKDDYHGTRCAGEIAAFRNDICGVGVAYNSKVSGIRILSGQITAEDEAASLIYGLDVNDIYSCSWGPSDDGKTMQAPDTLVKKAIIKGVTEGRDAKGALYVFASGNGGMFGDSCNFDGYTNSIFSITVGAIDWKGLHPPYSESCSAVMVVTYSSGSGNYIKTTDLDEKCSNTHGGTSAAAPLAAGIYTLVLEANPNLTWRDVQYLSILSSEEINPHDGKWQDTAMGKRYSHTYGFGKLDAYNIVHMAKSWINVNPQGWLYLPTIVEKQSISNSDEVIESTVSVSAEEFKQNNLKRLEHVTVTVDIDAPYRGHVLVDLISPDGVTSTLATARRLDKNRYGFQNWTFMSVAHWGSSGVGSWKLKVKSTHDNEIVTLKSWRLKMFGETIDAKKAKVISYGNDKEDAE
B2: ss-Kex2-C613 (soluble secreted Kex2 endoprotease of Saccharomyces cerevisiae truncated at amino acid 613) (protein)
chain: APPMDSSLLPVKEAEDKLSINDPLFERQWHLVNPSFPGSDINVLDLWYNNITGAGVVAAIVDDGLDYENEDLKDNFCAEGSWDFNDNTNLPKPRLSDDYHGTRCAGEIAAKKGNNFCGVGVGYNAKISGIRILSGDITTEDEAASLIYGLDVNDIYSCSWGPADDGRHLQGPSDLVKKALVKGVTEGRDSKGAIYVFASGNGGTRGDNCNYDGYTNSIYSITIGAIDHKDLHPPYSEGCSAVMAVTYSSGSGEYIHSSDINGRCSNSHGGTSAAAPLAAGVYTLLLEANPNLTWRDVQYLSILSAVGLEKNADGDWRDSAMGKKYSHRYGFGKIDAHKLIEMSKTWENVNAQTWFYLPTLYVSQSTNSTEETLESVITISEKSLQDANFKRIEHVTVTVDIDTEIRGTTTVDLISPAGIISNLGVVRPRDVSSEGFKDWTFMSVAHWGENGVGDWKIKVKTTENGHRIDFHSWRLKLFGESIDSSKTETFVFGNDKEEVE

Columns and labels:
[1] = target: fusion protein (peptide portion)-(Lys-Arg)-(h-GH), P01241
[2] = target: T1, Z-L-tyrosine-L-lysine-L-arginine-p-nitro …

Chain of fusion protein (peptide portion)-(Lys-Arg)-(h-GH), P01241 (P01241 whole entry, looked up, the tested form may be a part): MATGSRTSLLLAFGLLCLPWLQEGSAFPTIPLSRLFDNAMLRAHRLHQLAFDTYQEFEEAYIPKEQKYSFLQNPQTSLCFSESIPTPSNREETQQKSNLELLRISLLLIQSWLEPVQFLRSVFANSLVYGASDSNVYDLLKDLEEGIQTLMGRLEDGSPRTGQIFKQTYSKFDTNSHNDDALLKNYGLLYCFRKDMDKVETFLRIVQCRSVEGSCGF

Row | Protein | reaction yield of hydrolysis (RP-HPLC) [1] | specificity of the hydrolysis (NH2-terminal sequence of the reaction product) [1] | KM [2] | kcat [2] | kcat/KM (µM^-1 × min^-1) [2] | specific activity [2]
1 | B1 | a reaction yield higher than 95% | gave the expected sequence for h-GH | 61.4 µM | 3070 s⁻¹ | 3000 | a specific activity of approximately 100 U/mg
2 | B2 |  |  | 56.8 µM | 2280 s⁻¹ | 12400 | 

From US20030186258
